Assay results reported in patent publication US20240299575A1 (DENALI THERAPEUTICS, published 2024).
Positions count from the first letter of the chain named. Numbers in names are those of the source.

B1: TV variant SansFab (Fc polypeptide dimer without Fab, CH3C.35.23.2 on the knob chain, S239C on the hole chain) (designed binder)
chain 1: DKTHTCPPCPAPEAAGGPSVFLFPPKPKDTLMISRTPEVTCVVVDVSHEDPEVKFNWYVDGVEVHNAKTKPREEQYNSTYRVVSVLTVLHQDWLNGKEYKCKVSNKALPAPIEKTISKAKGQPREPQVYTLPPSRDELTKNQVSLWCLVKGFYPSDIAVEWESYGTEWANYKTTPPVLDSDGSFFLYSKLTVTKEEWQQGFVFSCSVMHEALHNHYTQKSLSLSPGK
chain 2: DKTHTCPPCPAPEAAGGPCVFLFPPKPKDTLMISRTPEVTCVVVDVSHEDPEVKFNWYVDGVEVHNAKTKPREEQYNSTYRVVSVLTVLHQDWLNGKEYKCKVSNKALPAPIEKTISKAKGQPREPQVYTLPPSRDELTKNQVSLSCAVKGFYPSDIAVEWESNGQPENNYKTTPPVLDSDGSFFLVSKLTVDKSRWQQGNVFSCSVMHEALHNHYTQKSLSLSPGK
notes: Fc knob-in-hole heterodimer with a portion of the IgG1 hinge and LALA mutations; also called No Fab
B2: TV variant S239C (RSV Fab-Fc dimer fusion, CH3C.35.23.2 on the knob chain, LALA, S239C on the hole chain) (antibody, human IgG1, kappa, L234A L235A)
light: DIQMTQSPSTLSASVGDRVTITCKCQLSVGYMHWYQQKPGKAPKLLIYDTSKLASGVPSRFSGSGSGTEFTLTISSLQPDDFATYYCFQGSGYPFTFGGGTKLEIKRTVAAPSVFIFPPSDEQLKSGTASVVCLLNNFYPREAKVQWKVDNALQSGNSQESVTEQDSKDSTYSLSSTLTLSKADYEKHKVYACEVTHQGLSSPVTKSFNRGEC
heavy 1: QVTLRESGPALVKPTQTLTLTCTFSGFSLSTSGMSVGWIRQPPGKALEWLADIWWDDKKDYNPSLKSRLTISKDTSKNQVVLKVTNMEPADTATYYCARSMITNWYFDVWGAGTTVTVSSASTKGPSVFPLAPSSKSTSGGTAALGCLVKDYFPEPVTVSWNSGALTSGVHTFPAVLQSSGLYSLSSVVTVPSSSLGTQTYICNVNHKPSNTKVDKKVEPKSCDKTHTCPPCPAPEAAGGPSVFLFPPKPKDTLMISRTPEVTCVVVDVSHEDPEVKFNWYVDGVEVHNAKTKPREEQYNSTYRVVSVLTVLHQDWLNGKEYKCKVSNKALPAPIEKTISKAKGQPREPQVYTLPPSRDELTKNQVSLWCLVKGFYPSDIAVEWESYGTEWANYKTTPPVLDSDGSFFLYSKLTVTKEEWQQGFVFSCSVMHEALHNHYTQKSLSLSPGK
heavy 2: QVTLRESGPALVKPTQTLTLTCTFSGFSLSTSGMSVGWIRQPPGKALEWLADIWWDDKKDYNPSLKSRLTISKDTSKNQVVLKVTNMEPADTATYYCARSMITNWYFDVWGAGTTVTVSSASTKGPSVFPLAPSSKSTSGGTAALGCLVKDYFPEPVTVSWNSGALTSGVHTFPAVLQSSGLYSLSSVVTVPSSSLGTQTYICNVNHKPSNTKVDKKVEPKSCDKTHTCPPCPAPEAAGGPCVFLFPPKPKDTLMISRTPEVTCVVVDVSHEDPEVKFNWYVDGVEVHNAKTKPREEQYNSTYRVVSVLTVLHQDWLNGKEYKCKVSNKALPAPIEKTISKAKGQPREPQVYTLPPSRDELTKNQVSLSCAVKGFYPSDIAVEWESNGQPENNYKTTPPVLDSDGSFFLVSKLTVDKSRWQQGNVFSCSVMHEALHNHYTQKSLSLSPGK
notes: also called S239C (100 nM); S239 variant
B3: TV variant A330C (RSV Fab-Fc dimer fusion, CH3C.35.23.2 on the knob chain, A330C on the hole chain) (antibody, human IgG1, kappa, L234A L235A)
light: B2 light
heavy 1: B2 heavy 1
heavy 2: B2 heavy 2 with C242S, A333C
notes: also called Conjugation site A330C
B4: TV variant OTR4 (RSV Fab-Fc dimer fusion, CH3C.35.23.2 on the knob chain, S239C and A330C on both chains) (antibody, human IgG1, kappa, L234A L235A)
light: B2 light
heavy 1: B2 heavy 1 with S242C, A333C
heavy 2: B2 heavy 2 with A333C
notes: also called OTR4 (2.5)
B5: TV variant OTR2 (RSV Fab-Fc dimer fusion, CH3C.35.23.2 on the knob chain, S239C on both chains) (antibody, human IgG1, kappa, L234A L235A)
light: B2 light
heavy 1: B2 heavy 1 with S242C
heavy 2: B2 heavy 2
notes: also called OTR2 (1.23)
B6: TV variant 500 nM low affinity (RSV Fab-Fc dimer fusion, CH3C.35.23.4 on the knob chain, S239C on the hole chain) (antibody, human IgG1, kappa, L234A L235A)
light: B2 light
heavy 1: B2 heavy 1 with A392S, T416S
heavy 2: B2 heavy 2
notes: also called 500 nM variant
B7: TV variant S442C (RSV Fab-Fc dimer fusion, CH3C.35.23.2 on the knob chain, S442C on the hole chain) (antibody, human IgG1, kappa, L234A L235A)
light: B2 light
heavy 1: B2 heavy 1
heavy 2: B2 heavy 2 with C242S, S445C
notes: also called Conjugation site S442C
B8: TV variant N297G knob (DNP02 Fab-Fc dimer fusion, CH3C.35.23.2 on the knob chain, LALAPG, N297G on the knob chain) (antibody, human IgG1, kappa, L234A L235A, N297G)
light: EIVMTQSPATLSLSPGERATLSCSASSSVSYMYWYQQKPGQAPRLLIYDTSNLASGIPARFSGSGSGTDFTLTISSLQPEDFAVYYCQQWSSYPPITFGQGTKVEIKRTVAAPSVFIFPPSDEQLKSGTASVVCLLNNFYPREAKVQWKVDNALQSGNSQESVTEQDSKDSTYSLSSTLTLSKADYEKHKVYACEVTHQGLSSPVTKSFNRGEC
heavy 1: QVQLQESGPGLVKPSETLSLTCAVSGYSITSDYAWNWIRQPPGKGLEWIGYMSYSGSTRYNPSLRSRVTISVDTSKNQFSLKLSSVTAADTAVYYCARGWPLAYWGQGTLVTVSSASTKGPSVFPLAPSSKSTSGGTAALGCLVKDYFPEPVTVSWNSGALTSGVHTFPAVLQSSGLYSLSSVVTVPSSSLGTQTYICNVNHKPSNTKVDKKVEPKSCDKTHTCPPCPAPEAAGGPSVFLFPPKPKDTLMISRTPEVTCVVVDVSHEDPEVKFNWYVDGVEVHNAKTKPREEQYGSTYRVVSVLTVLHQDWLNGKEYKCKVSNKALGAPIEKTISKAKGQPREPQVYTLPPSRDELTKNQVSLWCLVKGFYPSDIAVEWESYGTEWANYKTTPPVLDSDGSFFLYSKLTVTKEEWQQGFVFSCSVMHEALHNHYTQKSLSLSPGK
heavy 2: QVQLQESGPGLVKPSETLSLTCAVSGYSITSDYAWNWIRQPPGKGLEWIGYMSYSGSTRYNPSLRSRVTISVDTSKNQFSLKLSSVTAADTAVYYCARGWPLAYWGQGTLVTVSSASTKGPSVFPLAPSSKSTSGGTAALGCLVKDYFPEPVTVSWNSGALTSGVHTFPAVLQSSGLYSLSSVVTVPSSSLGTQTYICNVNHKPSNTKVDKKVEPKSCDKTHTCPPCPAPEAAGGPSVFLFPPKPKDTLMISRTPEVTCVVVDVSHEDPEVKFNWYVDGVEVHNAKTKPREEQYNSTYRVVSVLTVLHQDWLNGKEYKCKVSNKALGAPIEKTISKAKGQPREPQVYTLPPSRDELTKNQVSLSCAVKGFYPSDIAVEWESNGQPENNYKTTPPVLDSDGSFFLVSKLTVDKSRWQQGNVFSCSVMHEALHNHYTQKSLSLSPGK
notes: Knob-in-hole heterodimer with non-targeting DNP02 Fabs; also called BTGase Knob
B9: TV variant N297G hole (DNP02 Fab-Fc dimer fusion, CH3C.35.23.2 on the knob chain, LALAPG, N297G on the hole chain) (antibody, human IgG1, kappa, L234A L235A, N297G)
light: B8 light
heavy 1: B8 heavy 1 with G295N
heavy 2: B8 heavy 2 with N295G
notes: Knob-in-hole heterodimer with non-targeting DNP02 Fabs; also called BTGase Hole
B10: TV variant A114C (DNP02 Fab-Fc dimer fusion, CH3C.35.23.2 on the knob chain, LALAPG, A114C (Kabat) on the hole chain) (antibody, human IgG1, kappa, L234A L235A)
light: B8 light
heavy 1: B8 heavy 1 with G295N
heavy 2: B8 heavy 2 with A116C
notes: Knob-in-hole heterodimer with non-targeting DNP02 Fabs
B11: TV variant K149C (DNP02 Fab-Fc dimer fusion, CH3C.35.23.2 on the knob chain, LALAPG, K149C on the DNP02 light chain) (antibody, human IgG1, kappa, L234A L235A)
light: B8 light with K149C
heavy 1: B8 heavy 1 with G295N
heavy 2: B8 heavy 2
notes: as for B10
B12: TV variant N297G OTR2 (DNP02 Fab-Fc dimer fusion, CH3C.35.23.2 on the knob chain, LALAPG, N297G on both chains) (antibody, human IgG1, kappa, L234A L235A, N297G)
light: B8 light
heavy 1: B8 heavy 1
heavy 2: B8 heavy 2 with N295G
notes: Knob-in-hole heterodimer with non-targeting DNP02 Fabs; also called BTGase DAR2
B13: TV variant T289C (DNP02 Fab-Fc dimer fusion, CH3C.35.23.2 on the knob chain, LALAPG, T289C on the hole chain) (antibody, human IgG1, kappa, L234A L235A)
light: B8 light
heavy 1: B8 heavy 1 with G295N
heavy 2: B8 heavy 2 with T287C
notes: as for B10

target: T1, Human transferrin receptor protein 1 (TFR1) (human, UniProt P02786 89-760, limits assumed); experiment: column 'Affinity' of the construct table; method not stated
T1 construct: also called huTfR
T1 sequence (P02786 89-760 limits assumed): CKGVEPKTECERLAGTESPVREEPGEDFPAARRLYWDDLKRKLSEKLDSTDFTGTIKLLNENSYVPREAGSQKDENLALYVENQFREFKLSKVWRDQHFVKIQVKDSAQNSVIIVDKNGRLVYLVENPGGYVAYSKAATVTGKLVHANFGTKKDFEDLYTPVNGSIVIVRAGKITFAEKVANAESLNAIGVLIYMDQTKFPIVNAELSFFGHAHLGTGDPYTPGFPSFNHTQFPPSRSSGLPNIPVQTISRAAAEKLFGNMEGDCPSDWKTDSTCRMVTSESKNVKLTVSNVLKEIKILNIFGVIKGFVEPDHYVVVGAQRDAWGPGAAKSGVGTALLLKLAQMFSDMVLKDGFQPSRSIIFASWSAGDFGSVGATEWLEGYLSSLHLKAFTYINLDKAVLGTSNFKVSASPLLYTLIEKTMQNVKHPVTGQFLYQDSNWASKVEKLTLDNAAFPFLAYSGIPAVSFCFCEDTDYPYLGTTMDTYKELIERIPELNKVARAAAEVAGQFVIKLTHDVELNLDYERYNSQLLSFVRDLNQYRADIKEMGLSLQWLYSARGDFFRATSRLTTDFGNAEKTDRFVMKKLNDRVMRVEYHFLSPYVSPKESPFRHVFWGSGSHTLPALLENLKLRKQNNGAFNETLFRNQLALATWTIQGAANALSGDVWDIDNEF

| Binder | Kd |
| --- | --- |
| B1 | 100 nM |
| B2 | 100 nM |
| B3 | 100 nM |
| B4 | 100 nM |
| B5 | 100 nM |
| B6 | 500 nM |
| B7 | 100 nM |

target: T1, Human transferrin receptor protein 1 …; experiment: as above; remark: another data set of the same source

| Binder | Kd |
| --- | --- |
| B8 | 100 nM |
| B9 | 100 nM |
| B10 | 100 nM |
| B11 | 100 nM |
| B12 | 100 nM |
| B13 | 100 nM |
